Experiments:
[1] = target: T1, Biotinylated GAK (cyclin G-associated kinase) (Homo sapiens, biotin (biotinylated; site and way not stated)); test: SPR; same SPR experiment as the kinetic fit (biotinylated GAK on CAP chip, 25°C, 50 mM Tris/HCl pH 7.4, 150 mM NaCl); steady-state analysis; conditions: both partners purified
T1 construct: Captured on a CAP chip with the Biotin CAPture kit; the general purification removes the His6 tag
T1 chain: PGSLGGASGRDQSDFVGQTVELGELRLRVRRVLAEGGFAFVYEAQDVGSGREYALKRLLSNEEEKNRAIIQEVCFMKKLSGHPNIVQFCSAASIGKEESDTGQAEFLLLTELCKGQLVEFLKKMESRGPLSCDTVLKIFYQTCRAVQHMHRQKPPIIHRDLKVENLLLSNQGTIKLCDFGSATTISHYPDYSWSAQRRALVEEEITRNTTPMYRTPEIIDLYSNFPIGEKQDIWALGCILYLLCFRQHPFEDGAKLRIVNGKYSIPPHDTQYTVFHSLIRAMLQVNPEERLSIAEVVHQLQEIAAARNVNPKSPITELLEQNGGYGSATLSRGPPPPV

[2] = target: T1, Biotinylated GAK (cyclin G-associated …); test: SPR; Biacore 3000, 25°C, 30 μl/min; biotinylated GAK captured on CAP chip (60-120 RU); nanobodies injected in serial 2-fold dilutions for 3 min; 50 mM Tris/HCl pH 7.4, 150 mM NaCl, 50 μM EDTA, 0.005% Tween 20; kinetic global fit, 1:1 Langmuir model; conditions: both partners purified

B1: NbGAK_1 (VHH)
VHH: QVQLQESGGGLVQPGGSLRLSCSASGFKFNDSYMSWVRRVPGKGLEWVAGIWEDSSAAHYRDSVKGRFTISRDNAKNMLYLQMSSLKSDDTGLYYCVRRGYSGDYRPINNPSSQGTQVTVSS
notes: about 120 amino acids; structure of the complex with GAK deposited here (one of PDB 4C57, 4C58, 4C59); From a GAK-immunised dromedary, phage display vector pMECS, which adds an HA and a His tag
Work on B1 yielded a Kd [1] of 60.3 nM and a Kd [2] of 59.9 nM.

B2: NbGAK_4 (VHH)
VHH: QVQLQESGGGSVQAGGSLRLSCGASEYTSRMGWFRQAPGAEREGVACIHRQSNLSYYSDSVRGRFTISQDNAKTTAFLLMSSLKPEDTAIYYCATTTDCAAFVERATAITAGQGTQVTVSS
notes: about 120 amino acids; structures of the complex with GAK deposited here (among PDB 4C57, 4C58, 4C59); From a GAK-immunised dromedary, phage display vector pMECS, which adds an HA and a His tag
For B2, the Kd [1] was 12.8 nM and the Kd [2] was 10.3 nM.
